Measured values taken from patent publication US20120244165A1 (published 2012).
No end group written: not given here.

Assays:
[1] = target: T1, peptide 12-20 with alanine at aa 20 (A20) (also: biotinylated, position not given here); assay: ELISA on biotinylated peptides on streptavidin plates
T1 construct: Second library; the entry already carries the alanine
T1 peptide: VHHQKLVFA
Protocol: (§1) Epitope mapping of the monoclonal antibody mACI-01-Ab7 C2 was performed by ELISA using three different peptide libraries. One library comprises a total of 33 biotinylated peptides covering the complete amino acid (aa) sequence of Aβ1-42 (produced by Mimotopes and purchased from ANAWA Trading SA), the second library contains biotinylated peptides using peptide 12 (aa12-20 of Aβ) from the first peptide library and substituting each amino acid in the sequence by an alanine (see table 41 below), and the third library contains biotinylated peptides 13, 14, or 15 (aa 13-21, 14-22 or 15-23 of Aβ) and substituting in each case the last amino acids to an alanine or to a glycine for aa 21 which is already an alanine (see table 5 below). A biotinylated complete Aβ1-42 peptide was used as positive control (Bachem). Epitope mapping was done according to the manufacturer's (Mimotopes) instructions. Briefly, Streptavidin coated plates (NUNC) were blocked with 0.1% BSA in PBS overnight at 4° C. After washing with PBS-0.05% Tween 20, plates were coated for 1 hour at RT with the different peptides from the library, diluted in 0.1% BSA, 0.1% Sodium Azide in PBS to a final concentration of 10 μM. After washing, plates were incubated for 1 hour at RT with the mACI-01-Ab7 C2 antibody or an isotype control mouse IgG2b antibody, diluted to 10 μg/ml in 2% BSA, 0.1% Sodium Azide in PBS. Plates were washed again and incubated with alkaline phosphatase conjugated goat anti mouse IgG for 1 h at RT. After final washing, plates were incubated with phosphatase substrate (pNPP) and read at 405 nm using an ELISA plate reader.
(§2) It was shown that the monoclonal antibody mACI-01-Ab7 C2 bound specifically to peptides 12, 13, 14 and 15 of the first peptide library. […] A second library with alanine substitutions was used to determine the critical aa for binding to peptide 12-20 ([…]) (SEQ ID NO: 29).

[2] = target: T2, peptide 12-20 with alanine at aa 16 (A16) (also: biotinylated (position not given here)); assay: as above
T2 construct: Second library; the entry already carries the alanine
T2 peptide: VHHQALVFF
Protocol: as §1, §2

[3] = target: T3, peptide 12-20 with alanine at aa 19 (A19) (also: biotinylated, position not given here); assay: as above
T3 construct: Second library; the entry already carries the alanine
T3 peptide: VHHQKLVAF
Protocol: as §1, §2

[4] = target: T4, peptide 12-20 with alanine at aa 17 (A17) (also: biotinylated (position not given here)); assay: as above
T4 construct: Second library; the entry already carries the alanine
T4 peptide: VHHQKAVFF
Protocol: as §1, §2

Aβ1-42 monomers = target: T5, Aβ1-42 monomers (UniProt P05067 672-713); assay: binding affinity ELISA on plates coated with amyloid, alkaline phosphatase anti-mouse IgG detection
T5 construct: domain: Aβ1-42; Unlabelled monomeric preparation (HFIP film, DMSO, PBS); also called Amyloid monomers; Aβ1-42 monomeric peptide
T5 sequence (P05067 672-713 limits assumed): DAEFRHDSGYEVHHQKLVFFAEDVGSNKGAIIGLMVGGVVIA
Protocol: (§3) In order to evaluate the specificity of mACI-01-Ab7 C2 to different stages of polymerized amyloid protein, monomeric and polymeric soluble amyloid, particularly, amyloid β (Aβ) protein, and fibrillic amyloid, an ELISA coated with these different stages of polymeric beta-amyloid was performed. Monomers were prepared according to a modified method published by⁷, polymeric soluble amyloid, particularly, amyloid β (Aβ) according to⁸, whereas fibers were performed by incubation of amyloid (Bachem, Switzerland) with a final concentration of 1 μg/μl in Tris/HC1 pH 7.4 at 37° C. for 5 days followed by a centrifugation step (10,000 rpm for 5 minutes). Then amyloid polymers were coated on an ELISA plates with a final concentration of […] and binding affinity ELISA by using an anti-mouse IgG monoclonal antibody (Jackson ImmunoResearch Laboratories, Inc.) labelled with alkaline phosphate was performed.

Aβ1-42 fibers = target: T6, Aβ1-42 fibers (UniProt P05067 672-713); assay: as above
T6 construct: domain: Aβ1-42; Aggregated, fibrillar state of Aβ1-42 (incubated for days at 37 °C); number of peptide copies not defined; also called Amyloid 1-42 fibrils; fibrillar Aβ1-42
T6 sequence (P05067 672-713 limits assumed): as above
Protocol: as §3

Aβ1-42 oligomers = target: T7, Aβ1-42 oligomers (UniProt P05067 672-713); assay: as above
T7 construct: domain: Aβ1-42; Soluble oligomeric preparation (SDS-induced); number of copies not defined; also called amyloid oligomers; polymeric soluble amyloid β (Aβ) protein
T7 sequence (P05067 672-713 limits assumed): as above
Protocol: as §3

B1: mACI-01-Ab7 C2 (antibody, mouse IgG2b, kappa, V domains shown)
VH: EVQLVESGGGLVQPGGSLKLSCAASGFTFSSYGMSWVRQTPDKRLELVASINSNGGSTYYPDSVKGRFTISRDNAKNTLYLQMSSLKSEDTAMYYCASGDYWGQGSTLTVSS
VL: DVVMTQTPLSLPVSLGDQASISCRSSQSLVYSNGDTYLHWYLQKPGQSPKLLIYKVSNRFSGVPDRFSGSGSGTDFTLKISRVEAEDLGVYFCSQSTHVPWTFGGGTKLEIKR
notes: also called mC2; Mouse C2
Q: What does the source list for B1?
A: binding result [1]: no binding (tested: antibody at 10 µg/ml); binding result [2]: no binding (tested: antibody at 10 µg/ml); binding result [3]: no binding (tested: antibody at 10 µg/ml); binding result [4]: no binding (tested: antibody at 10 µg/ml); IC50 (Aβ1-42 monomers): 8.3 nM; IC50 (Aβ1-42 fibers): 5.27 nM; IC50 (Aβ1-42 oligomers): 2.53 nM
